Reference: IntAct's records for PubMed 18923418

B1: Ras GTPase-activating-like protein IQG1 (Candida albicans (strain SC5314 / ATCC MYA-2876)), Q5AH02 (parent)
chain: MAIGNIAARYLSSLEETDTTATTTTTTTSNVLQPSNRLNSPTKFNRKSLDNNSQDLDALARALNITPSKPETPTSISKGSATSLLRTKFESPSATVSSFKSTSSSNGVSPTKKNHFVEITSDETPSWANKNYKDILNKSPTKFNTQSNVHTPLKQLNQPIGTPSSSSLSPAKNASKSSPGYEYLCRIEAIKQWLESVLQEQITQSASQLISYIRNGIHLAKLANVVLPTSKPVFLNDSKLQFKHTENINRFFQLLDFFNMPDLFRFELTDLYDAKNVPKVWFCLHALSYILHKQDPSYPAMNNLVGKVDFSADDIRTANRALVNSPLPNFSSADTGEGKSDTSNNNSSTTSATAAFMDKVTSPVKKTPSPLKRPQQLQKKQLELVEDNKPELTQDSSGLSKISRDDPFTDRVDLAPPSTSNAKLELHTPPSKSLEFKIKSPIIDLSHRDSDYYTPELESHLPNIIKFQSLARGAVFRYLMFVDRILLKSYQDEFTNLFAIIRGNKARRKTVHKHRDELRLYSFEIIELQSIIRKNFVINKKPNFTSITNDVETVELQSLIRGKLTRDWKKYVTNGLEKFTPQIIDFQSLVRMKSIYSKSNKVISYKDEILPSLIELQSIARSQLYHRFSRSNAIDETEIIKIQSIIRRNAVIEDLYTKLSKVRSNKRRLIELQSIARGGVARTKLCNSVLVTLIYEDGILNQLFAKIRGDNYRKKFNSQKSELLKYEKSSIIPVQTLFRGVLSRYTKEVTLSDIFDQIDSVITLQSVARGKLMRGSIYEFSDYYQKHIKQVVKAQAILQRVFAQNAYKQLITSKNPPLKVIRRFAPLLSNNDRDFQDEMTLSDLKDLIIEKCKANEEYENQIEQLDMKLGLLDKNKISIEEFLKPTKGKTFKPIVENVKNLERLNKSLKKKIELWQTLFYFIQTNPIYLTKLFNSIPYTKNQTKSGQDLFQSVIQLFPVRDSSITYHSREEYFLVKLMIQLMQNDTANSNNLGDITKLHLTNWIDFFTNFNNHTFQRQHLKALLGKFVIRIVDNEQVDFESDPIRIYNQIIDHEMKVYGRSEKSRDISPQAAIQLPEVSNKFVGNLMSLRETCSDLLSMLQKNASGNKALLQIPDHVKLICRQGYLCAQRKFPDKSDQQHLAVAGVIFVKHYLGSILQVPENYGILTGNNDTQKAKSKDNLRYLYRVMLQLFSMKPFNDNFLKPLNEYIMASTDTVKSIISQAIINVGEIETVYELHDYDDLVTHQRPKLTISVNSLIQLEKSILQNVDIITTGNDDQLYKTCVEVEKLLISPQDMLTLTDLSSVTLNLNPTTQEESIVDSKTKTLFTQAKRCLLYIIRVQEEDDSDDLLELLISGIKPSHEQRFKEIVQYEKAEQDISLNNSKSVTANTVNKKKSTRPYSGTSLGDLSNLTYHELKKMCLEIILKLESMGELTRKNSFQTLLNQIAMDIKTKDSQRQCRWQQLQVSQKTIKKLSEKENYLKTQLHNYKKHVESVLLELQSKSKSNDKNWKRRLFNIMVIPVFSKQYFYHRELRKHNRLPKFGSYKYSAKKLIDQKVLIDFSTANNVATASKLDFMFSCHQVGKFTIEVASGTVNIPGATNTITLDELLALQYENKTKFELFDGMATFDSNNFMGLIFRKFYDLKKE
partner: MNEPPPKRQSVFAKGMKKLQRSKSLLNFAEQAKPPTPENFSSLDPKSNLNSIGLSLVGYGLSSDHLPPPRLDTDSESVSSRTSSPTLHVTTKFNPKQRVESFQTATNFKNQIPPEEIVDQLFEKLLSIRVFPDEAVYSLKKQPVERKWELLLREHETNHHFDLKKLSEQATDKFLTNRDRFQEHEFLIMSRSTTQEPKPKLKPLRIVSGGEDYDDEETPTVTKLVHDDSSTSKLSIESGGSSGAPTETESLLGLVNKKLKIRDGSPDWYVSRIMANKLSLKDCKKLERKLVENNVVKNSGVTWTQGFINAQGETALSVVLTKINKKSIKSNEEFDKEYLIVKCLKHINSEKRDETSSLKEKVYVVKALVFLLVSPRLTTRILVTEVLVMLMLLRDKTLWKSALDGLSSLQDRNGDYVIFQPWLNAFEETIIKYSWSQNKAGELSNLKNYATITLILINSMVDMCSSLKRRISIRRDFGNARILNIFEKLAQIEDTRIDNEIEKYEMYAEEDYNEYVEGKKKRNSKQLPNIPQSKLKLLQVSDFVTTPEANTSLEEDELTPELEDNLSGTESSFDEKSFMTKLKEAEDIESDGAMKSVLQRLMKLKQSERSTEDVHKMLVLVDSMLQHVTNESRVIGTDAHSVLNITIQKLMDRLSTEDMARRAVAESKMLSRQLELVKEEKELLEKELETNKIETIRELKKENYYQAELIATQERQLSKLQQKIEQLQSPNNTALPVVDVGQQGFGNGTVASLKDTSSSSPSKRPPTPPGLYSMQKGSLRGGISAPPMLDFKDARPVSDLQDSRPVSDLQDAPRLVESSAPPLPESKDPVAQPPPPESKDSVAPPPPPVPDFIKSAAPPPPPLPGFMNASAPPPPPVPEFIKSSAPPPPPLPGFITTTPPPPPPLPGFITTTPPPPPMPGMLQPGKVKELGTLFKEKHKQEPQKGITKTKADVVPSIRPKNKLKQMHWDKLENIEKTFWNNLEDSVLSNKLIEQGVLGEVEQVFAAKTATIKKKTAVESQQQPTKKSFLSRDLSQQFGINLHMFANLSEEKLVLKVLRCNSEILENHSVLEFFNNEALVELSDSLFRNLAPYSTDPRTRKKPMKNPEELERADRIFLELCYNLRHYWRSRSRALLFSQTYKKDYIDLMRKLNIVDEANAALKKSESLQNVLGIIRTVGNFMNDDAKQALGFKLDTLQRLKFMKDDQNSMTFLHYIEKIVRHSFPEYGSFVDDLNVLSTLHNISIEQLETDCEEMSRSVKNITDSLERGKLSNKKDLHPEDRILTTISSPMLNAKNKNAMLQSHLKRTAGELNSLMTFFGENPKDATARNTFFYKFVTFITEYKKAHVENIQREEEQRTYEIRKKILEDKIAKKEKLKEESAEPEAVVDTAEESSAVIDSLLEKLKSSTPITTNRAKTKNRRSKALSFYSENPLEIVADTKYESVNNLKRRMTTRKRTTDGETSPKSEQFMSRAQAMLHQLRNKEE
B2: Ras GTPase-activating-like protein IQG1 (Candida albicans (strain SC5314 / ATCC MYA-2876)), Q5AH02 (parent)
chain: B1 chain

Variants of: B1
Conditions: with bnr1_canal BNR1, Q5AAF4

Row | Variant | effect of a mutation on the interaction
1 | E15A | disrupting interaction

Variants of: B2
Conditions: with bni1_canal BNI1, Q5AL52
Chain of bni1_canal BNI1, Q5AL52 (Q5AL52 whole entry): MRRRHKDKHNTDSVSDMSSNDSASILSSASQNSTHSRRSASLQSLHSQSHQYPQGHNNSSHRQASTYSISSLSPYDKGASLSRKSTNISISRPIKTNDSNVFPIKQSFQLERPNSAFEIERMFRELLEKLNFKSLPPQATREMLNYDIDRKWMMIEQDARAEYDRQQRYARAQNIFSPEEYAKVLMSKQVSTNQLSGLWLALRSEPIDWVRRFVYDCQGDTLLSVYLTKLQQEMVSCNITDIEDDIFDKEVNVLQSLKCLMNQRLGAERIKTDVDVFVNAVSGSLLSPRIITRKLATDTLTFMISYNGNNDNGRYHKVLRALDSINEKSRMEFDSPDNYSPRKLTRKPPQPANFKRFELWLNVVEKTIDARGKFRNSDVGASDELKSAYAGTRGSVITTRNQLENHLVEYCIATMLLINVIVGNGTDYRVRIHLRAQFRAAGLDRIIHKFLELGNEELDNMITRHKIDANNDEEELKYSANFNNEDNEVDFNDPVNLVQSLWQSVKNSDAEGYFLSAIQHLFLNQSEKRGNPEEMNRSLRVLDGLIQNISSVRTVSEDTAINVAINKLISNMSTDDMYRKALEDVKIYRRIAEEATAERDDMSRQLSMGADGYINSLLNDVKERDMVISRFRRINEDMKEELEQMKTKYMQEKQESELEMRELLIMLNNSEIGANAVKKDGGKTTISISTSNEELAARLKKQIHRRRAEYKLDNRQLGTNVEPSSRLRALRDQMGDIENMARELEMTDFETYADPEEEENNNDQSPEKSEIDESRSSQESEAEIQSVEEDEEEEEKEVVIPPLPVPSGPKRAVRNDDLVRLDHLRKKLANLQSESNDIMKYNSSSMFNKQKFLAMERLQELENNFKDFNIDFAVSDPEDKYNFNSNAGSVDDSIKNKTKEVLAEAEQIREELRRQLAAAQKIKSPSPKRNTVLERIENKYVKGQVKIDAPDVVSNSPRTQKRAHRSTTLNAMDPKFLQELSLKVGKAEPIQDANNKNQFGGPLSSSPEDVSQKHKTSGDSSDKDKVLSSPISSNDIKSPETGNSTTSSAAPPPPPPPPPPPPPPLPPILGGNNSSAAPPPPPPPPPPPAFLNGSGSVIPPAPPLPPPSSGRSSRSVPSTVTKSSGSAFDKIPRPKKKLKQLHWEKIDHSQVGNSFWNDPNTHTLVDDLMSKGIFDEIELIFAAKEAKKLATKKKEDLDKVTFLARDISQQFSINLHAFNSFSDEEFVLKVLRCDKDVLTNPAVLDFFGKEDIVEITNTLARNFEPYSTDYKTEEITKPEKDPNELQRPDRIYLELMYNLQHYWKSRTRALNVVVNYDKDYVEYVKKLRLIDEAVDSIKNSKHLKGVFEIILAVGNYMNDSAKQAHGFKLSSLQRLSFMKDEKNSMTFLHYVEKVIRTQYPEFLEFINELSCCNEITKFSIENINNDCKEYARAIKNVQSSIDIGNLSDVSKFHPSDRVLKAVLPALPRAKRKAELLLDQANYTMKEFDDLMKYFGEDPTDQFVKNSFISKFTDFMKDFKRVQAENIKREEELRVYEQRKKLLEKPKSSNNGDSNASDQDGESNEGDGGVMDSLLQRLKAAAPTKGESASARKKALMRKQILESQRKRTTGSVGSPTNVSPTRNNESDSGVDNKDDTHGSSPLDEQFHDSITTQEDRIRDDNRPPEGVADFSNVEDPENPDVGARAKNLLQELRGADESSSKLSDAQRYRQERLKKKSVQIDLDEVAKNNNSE

Row | Variant | effect of a mutation on the interaction
2 | E15A | disrupting interaction
